We go through 95 sequences from the supplement of paper PMC6755084.

This data set concerns F1*sub RNA substrate (template-directed ligation). Put plainly: fraction ligated after 30 min (ligated reads / total reads); higher = more ligase activity; sequences stand for … in GAGACCGCAACTGAAAAGTTGT…AGTTCTGCACGTAGAAGCAAAAGGC
The conditions noted are these: 42 °C. On the procedure:
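Chip-synthesised pool of F1* ligase ribozyme variants (all single and double substitutions, single, double and triple deletions in the catalytic core and GAA bulge, plus designed variants) was transcribed with T7 and reacted as a pool with excess substrate F1*sub for 30 min at 42 C in 50 mM EPPS pH 8.5, 25 mM MgCl2. Ligated and unligated bands were separated by PAGE, barcoded by RT and deep sequenced; fraction ligated = ligated reads / total reads per variant, relative activity = FL / FL of wild type (0.826). Sequences are the DNA template of the ribozyme.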
In the case of ATCCTTGTCGTAAGACACTTTGGAGGGTTGA [3d82], the fraction ligated worked out at 0.1.
As to ATCCTTGTCGTAAGACACTTTGGATGGGTTA [3d84], the fraction ligated was 0.218.
Consider ATCCTTGTCGTAAGACACTTTGGATGGGTTG [3d85], for which the fraction ligated stood at 0.716.
Sequence ATCCTTGTCGTAAGACACTTTGGATGGGTTGA [2d4] gave a fraction ligated of 0.744.
The sequence ATCCTTGTCGTAAGACACTTTGGATGGTTGA [3d83] registered a fraction ligated of 0.138.
In turn, ATCCTTGTCGTAAGACACTTTGGTGGGTTGA [3d81] came in with a fraction ligated of 0.169.
Sequence ATCCTTGTCGTAAGACATTTGGATGGGTTGA [3d78] gave a fraction ligated of 0.725.
For the sequence ATCCTTGTCGTAAGACCTTTGGATGGGTTGA [3d77], the fraction ligated is 0.703.
In turn, ATCCTTGTCGTAAGCACTTTGGATGGGTTGA [3d75] yielded a fraction ligated of 0.715.
Then ATCCTTGTCGTAGACACTTTGGATGGGTTGA [3d73], with 0.758; and ATCCTTGTCTAAGACACTTTGGATGGGTTGA [3d71], with 0.716; and ATCCTTGTGTAAGACACTTTGGATGGGTTGA [3d70], with 0.734.
Then ATCCTTTCGTAAGACACTTTGGATGGGTTGA [3d68], with 0.791.
ATCTTGTCGTAAGACACTTTGGATGGGTTGA [3d46] returned a fraction ligated of 0.774.
Then CACTTGTCGTAAGACACTTTGGATGGGTTGA [3d1], with 0.637; and “GGTATCACTTGTCGTAAGACACTTTGGATGTTGA [s36]”, with 0.000954; and “GGTTATCACTTGTCGTAAGACACTTTGGATGTGA [s37]”, with 0.
In turn, “GTATCACTTGTCGTAAGACACTTTGGATGGTTGA [s35]” yielded a fraction ligated of 0.242.
Sequence TAACTGTCGTAAGACACTTTGGATGGGTTGA [3d509] registered a fraction ligated of 0.175.
As to TAACTTGCGTAAGACACTTTGGATGGGTTGA [3d511], the fraction ligated was 0.085.
Then TAACTTGTCGAAGACACTTTGGATGGGTTGA [3d514], with 0.112; and TAACTTGTCGTAAACACTTTGGATGGGTTGA [3d516], with 0.0735.
The same measure for TAACTTGTCGTAAGAACTTTGGATGGGTTGA [3d518]: 0.21; for TAACTTGTCGTAAGACACTTGGATGGGTTGA [3d521]: 0.266.
TAACTTGTCGTAAGACACTTTGATGGGTTGA [3d522] came in with a fraction ligated of 0.0453.
TAACTTGTCGTAAGACACTTTGGAGGGTTGA [3d524] displayed a fraction ligated of 0.0881.
The same measure for TAACTTGTCGTAAGACACTTTGGATGGGTTA [3d526]: 0.0297; for TAACTTGTCGTAAGACACTTTGGATGGGTTG [3d527]: 0.153; for TAACTTGTCGTAAGACACTTTGGATGGGTTGA [2d47]: 0.271.
The sequence TAACTTGTCGTAAGACACTTTGGATGGTTGA [3d525] gave a fraction ligated of 0.309.
The same measure for TAACTTGTCGTAAGACACTTTGGTGGGTTGA [3d523]: 0.0256.
The same measure for TAACTTGTCGTAAGACATTTGGATGGGTTGA [3d520]: 0.38; for TAACTTGTCGTAAGACCTTTGGATGGGTTGA [3d519]: 0.196; for TAACTTGTCGTAAGCACTTTGGATGGGTTGA [3d517]: 0.142.
As to TAACTTGTCGTAGACACTTTGGATGGGTTGA [3d515], the fraction ligated stood at 0.177.
In turn, TAACTTGTCTAAGACACTTTGGATGGGTTGA [3d513] gave a fraction ligated of 0.123.
TAACTTGTGTAAGACACTTTGGATGGGTTGA [3d512] returned a fraction ligated of 0.547.
Take TAACTTTCGTAAGACACTTTGGATGGGTTGA [3d510]: the fraction ligated was 0.0478.
Sequence TAATTGTCGTAAGACACTTTGGATGGGTTGA [3d508] returned a fraction ligated of 0.0528.
Sequence TACACGTCGTAAGACACTTTGGATGGGTTGA [3d566] showed a fraction ligated of 0.266.
The same measure for TACACTGCGTAAGACACTTTGGATGGGTTGA [3d568]: 0.177.
Then TACACTGTCGAAGACACTTTGGATGGGTTGA [3d571], with 0.346.
The same measure for TACACTGTCGTAAACACTTTGGATGGGTTGA [3d573]: 0.181; for TACACTGTCGTAAGAACTTTGGATGGGTTGA [3d575]: 0.162; for TACACTGTCGTAAGACACTTGGATGGGTTGA [3d578]: 0.394.
In the case of TACACTGTCGTAAGACACTTTGATGGGTTGA [3d579], the fraction ligated amounted to 0.279.
TACACTGTCGTAAGACACTTTGGAGGGTTGA [3d581] registered a fraction ligated of 0.292.
The same measure for TACACTGTCGTAAGACACTTTGGATGGGTTA [3d583]: 0.069; for TACACTGTCGTAAGACACTTTGGATGGGTTG [3d584]: 0.321; for TACACTGTCGTAAGACACTTTGGATGGGTTGA [2d50]: 0.432.
In turn, TACACTGTCGTAAGACACTTTGGATGGTTGA [3d582] gave a fraction ligated of 0.375.
Sequence TACACTGTCGTAAGACACTTTGGTGGGTTGA [3d580] returned a fraction ligated of 0.151.
TACACTGTCGTAAGACATTTGGATGGGTTGA [3d577] showed a fraction ligated of 0.617.
In the case of TACACTGTCGTAAGACCTTTGGATGGGTTGA [3d576], the fraction ligated came out at 0.752.
Sequence TACACTGTCGTAAGCACTTTGGATGGGTTGA [3d574] came in with a fraction ligated of 0.463.
With TACACTGTCGTAGACACTTTGGATGGGTTGA [3d572], the fraction ligated amounted to 0.322.
With TACACTGTCTAAGACACTTTGGATGGGTTGA [3d570], the fraction ligated was found to be 0.266.
Then TACACTGTGTAAGACACTTTGGATGGGTTGA [3d569], with 0.632.
The same measure for TACACTTCGTAAGACACTTTGGATGGGTTGA [3d567]: 0.0399; for TACACTTGCGAAGACACTTTGGATGGGTTGA [3d603]: 0.157.
TACACTTGCGTAAACACTTTGGATGGGTTGA [3d605] yielded a fraction ligated of 0.036.
For TACACTTGCGTAAGAACTTTGGATGGGTTGA [3d607], the fraction ligated worked out at 0.015.
In the case of TACACTTGCGTAAGACACTTGGATGGGTTGA [3d610], the fraction ligated was determined as 0.0197.
In turn, TACACTTGCGTAAGACACTTTGATGGGTTGA [3d611] returned a fraction ligated of 0.0347.
The same measure for TACACTTGCGTAAGACACTTTGGAGGGTTGA [3d613]: 0.044; for TACACTTGCGTAAGACACTTTGGATGGGTTA [3d615]: 0.013.
Sequence TACACTTGCGTAAGACACTTTGGATGGGTTG [3d616] came in with a fraction ligated of 0.118.
As for TACACTTGCGTAAGACACTTTGGATGGGTTGA [2d52], the fraction ligated came out at 0.115.
The sequence TACACTTGCGTAAGACACTTTGGATGGTTGA [3d614] returned a fraction ligated of 0.102.
In turn, TACACTTGCGTAAGACACTTTGGTGGGTTGA [3d612] yielded a fraction ligated of 0.0235.
On to TACACTTGCGTAAGACATTTGGATGGGTTGA [3d609], for which the fraction ligated was 0.422.
The same measure for TACACTTGCGTAAGACCTTTGGATGGGTTGA [3d608]: 0.0714; for TACACTTGCGTAAGCACTTTGGATGGGTTGA [3d606]: 0.764; for TACACTTGCGTAGACACTTTGGATGGGTTGA [3d604]: 0.0967.
With TACACTTGCTAAGACACTTTGGATGGGTTGA [3d602], the fraction ligated turned out to be 0.196.
On to TACACTTGGTAAGACACTTTGGATGGGTTGA [3d601], for which the fraction ligated is 0.0847.
TACACTTGTCAAGACACTTTGGATGGGTTGA [3d632]: the fraction ligated is 0.167.
On to TACACTTGTCGAAACACTTTGGATGGGTTGA [3d647], for which the fraction ligated was 0.16.
Then TACACTTGTCGAAGAACTTTGGATGGGTTGA [3d649], with 0.195; and TACACTTGTCGAAGACACTTGGATGGGTTGA [3d652], with 0.109; and TACACTTGTCGAAGACACTTTGATGGGTTGA [3d653], with 0.0665.
The same measure for TACACTTGTCGAAGACACTTTGGAGGGTTGA [3d655]: 0.126; for TACACTTGTCGAAGACACTTTGGATGGGTTA [3d657]: 0.13; for TACACTTGTCGAAGACACTTTGGATGGGTTG [3d658]: 0.593.
Then TACACTTGTCGAAGACACTTTGGATGGGTTGA [2d55], with 0.603; and TACACTTGTCGAAGACACTTTGGATGGTTGA [3d656], with 0.505.
TACACTTGTCGAAGACACTTTGGTGGGTTGA [3d654] displayed a fraction ligated of 0.115.
On to TACACTTGTCGAAGACATTTGGATGGGTTGA [3d651], for which the fraction ligated is 0.444.
The same measure for TACACTTGTCGAAGACCTTTGGATGGGTTGA [3d650]: 0.1; for TACACTTGTCGAAGCACTTTGGATGGGTTGA [3d648]: 0.134; for TACACTTGTCGAGACACTTTGGATGGGTTGA [3d646]: 0.195.
TACACTTGTCGTAAAACTTTGGATGGGTTGA [3d672] returned a fraction ligated of 0.0463.
TACACTTGTCGTAAACACTTGGATGGGTTGA [3d675] came in with a fraction ligated of 0.0236.
The same measure for TACACTTGTCGTAAACACTTTGATGGGTTGA [3d676]: 0.0132; for TACACTTGTCGTAAACACTTTGGAGGGTTGA [3d678]: 0.0486.
